Here are results for one substance from PMC4372372.

For the assay, the target named is rPmMasSPH1 (His-tagged recombinant C-terminal SP-like domain of PmMasSPH1) (Penaeus monodon).

“rPmPPAE2 (His-tagged recombinant SP domain of PmPPAE2) (domain or fragment)”: the PGN-triggered PO activity of shrimp hemolymph in vitro (L-DOPA, change of A490 at 5 min), with 0.25 ug PGN and 1 uM of each recombinant protein, relative to hemolymph alone is 102%.
